The source of these data is patent publication US20260250412A1 (GENEQUANTUM HEALTHCARE SUZHOU, published 2026).

As a reminder, the EC50 (read off the curve) is the concentration giving half of the maximal effect. As usually defined, the Kd is the constant that tells how readily two partners part at equilibrium.

To fix the notation:
T1: recombinant extracellular domain of human TROP2 (human, UniProt P09758 27-274)
T1 construct: extracellular domain; also called Human Trop 2 ECD; Trop2 ECD
T1 sequence (looked up): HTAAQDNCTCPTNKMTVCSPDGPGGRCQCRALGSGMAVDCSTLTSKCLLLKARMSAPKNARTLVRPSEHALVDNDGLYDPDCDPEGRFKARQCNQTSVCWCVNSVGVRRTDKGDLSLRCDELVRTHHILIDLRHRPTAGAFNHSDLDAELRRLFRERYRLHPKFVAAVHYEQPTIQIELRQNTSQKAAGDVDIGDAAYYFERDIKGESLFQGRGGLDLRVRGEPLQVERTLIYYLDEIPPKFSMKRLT

B1: Trodelvy (antibody, human IgG1, kappa)
heavy: not shown
light: DIQLTQSPSSLSASVGDRVSITCKASQDVSIAVAWYQQKPGKAPKLLIYSASYRYTGVPDRFSGSGSGTDFTLTISSLQPEDFAVYYCQQHYITPLTFGAGTKVEIKRTVAAPSVFIFPPSDEQLKSGTASVVCLLNNFYPREAKVQWKVDNALQSGNSQESVTEQDSKDSTYSLSSTLTLSKADYEKHKVYACEVTHQGLSSPVTKSFNRGEC
modifications: SN-38 conjugated; sites not stated
notes: also called IMMU-132
B2: ADC-2 (antibody, human IgG1, kappa)
heavy: not shown
light: DIQLTQSPSSLSASVGDRVSITCKASQDVSIAVAWYQQKPGKAPKLLIYSASYRYTGVPDRFSGSGSGTDFTLTISSLQPEDFAVYYCQQHYITPLTFGAGTKVEIKRTVAAPSVFIFPPSDEQLKSGTASVVCLLNNFYPREAKVQWKVDNALQSGNSQESVTEQDSKDSTYSLSSTLTLSKADYEKHKVYACEVTHQGLSSPVTKSFNRGECGALPETGG
B3: GQhRS7 (antibody, human IgG1, kappa)
heavy: not shown
light: B2 light
notes: unconjugated
B4: hRS7 (from TRODELVY) (antibody, human IgG1, kappa)
heavy: not shown
light: B1 light
notes: expressed in HEK293F; also called Trodelvy's antibody
B5: Ab13 (antibody, human IgG1, kappa, V domains shown)
VH: QVQLQQSGSELKKPGASVKVSCKASGYTFTNAGMNWVKQAPGQGLKWMGWINTDSGEPTYTDDFKGRFAFSLDTSVSTAYLQISSLKADDTAVYFCARGGFGSSYWYFDVWGQGSLVTVSS
VL: DIQLTQSPSSLSASVGDRVSITCKASQDVSIAVAWYQQKPGKAPKLLIYSASYRYTGVPDRFSGSGSGTDFTLTISSLQPEDFAVYYCQQHYITPLTFGAGTKVEIKR
B6: Ab16 (antibody, human IgG1, kappa, V domains shown)
VH: B5 VH with N31A, D54Y, S55T
VL: B5 VL
B7: Datopotamab (antibody, human IgG1, kappa, V domains shown)
VH: QVQLVQSGAEVKKPGASVKVSCKASGYTFTTAGMQWVRQAPGQGLEWMGWINTHSGVPKYAEDFKGRVTISADTSTSTAYLQLSSLKSEDTAVYYCARSGFGSSYWYFDVWGQGTLVTVSS
VL: B5 VL with L4M, S20T, I31T, D60S, A100Q, V104L
notes: expressed in HEK293F; also called DS1062a Ab; DS1062's antibody

Residue numbers refer to the chain shown, from its start.

The target of one experiment is T1, recombinant extracellular domain of …. The experiment in a line: ELISA on plate-coated human Trop2 ECD (0.5 ug/mL), detection with goat anti-human Fc-HRP, TMB, absorbance at 450 nm. As for the experimental part: Human Trop 2 ECD at concentration of 0.5 μg/mL was coated on 96-well plates at 4° C. for overnight. The plates were then blocked with 3% BSA-PBST for 1 h at room temperature. […] After incubation goat anti-human FC secondary antibody (HRP) (Sinobiological, SSA001) was added at a ratio of 1:100000 and incubated at room temperature for 60 min again. Following the wash, the plate was treated with TMB solution (Sigma, T0440) as an HRP substrate, and the reaction was stopped with 1 M H₂SO₄. The absorbance for each well was detected at 450 nm wavelength.
(In an ELISA, binding on a coated surface is turned into a signal by an enzyme label.)
For B1, the “EC50 (read off the curve)” value was roughly 20 ng/mL.

For B2, the “EC50 (read off the curve)” value was roughly 20 ng/mL.

B3: the 50% effective concentration (EC50 (read off the curve)) was roughly 20 ng/mL.

A further experiment shares this target. The experiment in a line: SPR (Biacore T200), antibody captured on Protein A chip, TROP2 ECD as analyte, 1:1 model, 25 C. As for the experimental part:
Binding kinetics and affinity analysis were performed. Surface Plasmon Resonance (SPR) analysis was performed on a Biacore T200 (GE healthcare) with a Sensor Chip Protein A (GE healthcare) following manufacturer's instructions. All measurements were performed at 25° C. in the HBS-EP⁺ buffer (10 mM HEPES, pH 7.4, 150 mM NaCl, 3 mM EDTA, and 0.05% surfactant P20). About 110-140 RU (Resonance unit) of each of the purified antibodies was captured on flow cells 2 and 4 (i.e., the reaction surface) of the sensor chip, respectively. Flow cells 1 and 3 were treated with the HBS-EP⁺ buffer to serve as reference surfaces.
Serial dilutions of the recombinant extracellular domain of human TROP2 (i.e., the analyte) (Acrobio system) (243, 81, 27, 9, 3, 1, 0.333, and 0.111 nM, respectively) were prepared in HBS-EP⁺ buffer. Capturing of the antibodies was followed by a three-minute injection (association phase) of serial dilutions of TROP2 at a flow rate of 30 μL/min and ten minutes of buffer flow (dissociation phase). The chip surface was regenerated by two pulses of 30-second injection of 10 mM Glycine-HCl pH 1.5 at a flow rate of 50 μL/min. The collected data were processed on a Biacore T200 Evaluation software using methods known in the art, comprising the following steps: (1) setting the response on the y-axis and the start of the injection on the x-axis to zero, (2) performing double referencing by firstly subtracting the reference surface data from the reaction surface data to get the analyte injection curves, and then subtracting the buffer injection curves from the analyte injection curves, and (3) performing the kinetic analysis using the 1:1 binding model with a global fit.
(In general: SPR reads the build-up and loss of mass on a sensor chip optically.)
On to B4, for which the Kd turned out to be 1.28 nM.

In the case of B5, the Kd is 8.16 nM.

For the molecule B6, the dissociation constant Kd is 13.1 nM.

As for B7, the Kd was 13 nM.
